Target: T1, C3b deposited on zymosan or Sepharose 4B (human, UniProt P01024 23-667; P01024 749-1663, limits assumed, covalently deposited on zymosan A or Sepharose 4B by opsonization in normal human serum)
T1 construct: The whole C3 entry is named; The deposit may include iC3b; also called C3b-opsonized zymosan; C3b-zymosan
Assay: flow cytometry on zymosan opsonized in 50% NHS
Method: After 30 minutes, the reactions were quenched with EDTA, washed and samples without the mAbs were probed with the respective A1488 mAbs.

T1 sequence (P01024 23-667 limits assumed, chain 1 of 2): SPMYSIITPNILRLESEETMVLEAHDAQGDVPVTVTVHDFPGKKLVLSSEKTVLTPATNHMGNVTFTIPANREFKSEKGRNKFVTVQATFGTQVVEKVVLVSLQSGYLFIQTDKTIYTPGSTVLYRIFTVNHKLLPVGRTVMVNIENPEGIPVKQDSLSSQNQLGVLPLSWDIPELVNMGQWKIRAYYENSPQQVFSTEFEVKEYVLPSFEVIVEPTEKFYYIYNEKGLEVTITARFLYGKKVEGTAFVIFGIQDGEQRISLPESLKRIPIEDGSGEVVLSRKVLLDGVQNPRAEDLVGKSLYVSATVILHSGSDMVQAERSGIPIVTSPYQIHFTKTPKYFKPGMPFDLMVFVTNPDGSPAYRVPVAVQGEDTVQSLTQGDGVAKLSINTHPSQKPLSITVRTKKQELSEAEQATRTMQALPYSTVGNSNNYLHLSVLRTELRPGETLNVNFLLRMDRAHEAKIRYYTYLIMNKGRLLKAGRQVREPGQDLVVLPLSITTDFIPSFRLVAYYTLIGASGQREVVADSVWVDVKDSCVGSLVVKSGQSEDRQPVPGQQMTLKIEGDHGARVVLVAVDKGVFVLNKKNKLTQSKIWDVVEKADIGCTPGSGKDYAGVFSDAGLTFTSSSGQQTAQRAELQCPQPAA
T1 sequence (P01024 749-1663 limits assumed, chain 2 of 2): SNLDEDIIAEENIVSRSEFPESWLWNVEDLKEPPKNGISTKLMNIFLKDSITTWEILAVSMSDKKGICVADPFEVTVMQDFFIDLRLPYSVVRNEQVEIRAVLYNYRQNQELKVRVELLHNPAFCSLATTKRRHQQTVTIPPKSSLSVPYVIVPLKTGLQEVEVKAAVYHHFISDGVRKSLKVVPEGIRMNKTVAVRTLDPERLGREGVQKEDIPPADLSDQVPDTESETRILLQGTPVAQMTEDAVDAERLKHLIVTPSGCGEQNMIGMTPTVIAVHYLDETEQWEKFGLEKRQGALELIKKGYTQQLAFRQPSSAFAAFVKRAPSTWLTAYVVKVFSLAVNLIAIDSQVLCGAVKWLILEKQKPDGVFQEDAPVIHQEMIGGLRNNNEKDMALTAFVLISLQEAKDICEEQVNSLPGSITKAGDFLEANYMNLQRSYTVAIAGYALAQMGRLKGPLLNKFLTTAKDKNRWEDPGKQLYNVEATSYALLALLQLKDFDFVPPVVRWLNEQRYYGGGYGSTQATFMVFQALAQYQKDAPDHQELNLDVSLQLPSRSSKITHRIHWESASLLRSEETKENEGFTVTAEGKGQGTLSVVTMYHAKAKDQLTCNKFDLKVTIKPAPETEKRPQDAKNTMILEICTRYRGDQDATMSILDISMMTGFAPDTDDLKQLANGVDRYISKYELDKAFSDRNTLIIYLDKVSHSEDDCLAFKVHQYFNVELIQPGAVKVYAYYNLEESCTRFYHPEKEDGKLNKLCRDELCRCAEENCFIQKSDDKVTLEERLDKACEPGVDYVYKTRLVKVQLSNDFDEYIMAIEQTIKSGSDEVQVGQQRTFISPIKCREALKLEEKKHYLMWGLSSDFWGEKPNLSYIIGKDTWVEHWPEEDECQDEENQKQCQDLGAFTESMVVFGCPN

fold increase in binding (probe added after opsonization versus present from the start) | Binder
200 fold | mAb 3E7 (antibody, mouse IgG1, V domains shown, also called mouse IgG1 mAb 3E7; A1488 mAb 3E7) VH: EVQLQESGPSLVKPSQTLSLTCSVTGDSITSDYWNWIRKFPGNKLESMGYITYSGTTYYNPSLKSRISITRDTSKNQYYLQLNSVTSEDTATYYCARGVDYEPSYYFDYWGQGTTLTVSS VL: DIQMTQTTSSLSASLGDRVTISCSASQGISNYLNWYQQKPDGTVKLLIYYTSSLHSGVPSRFSGSGSGTDYSLTISNLEPEDIATYYCQQYSNLPWTFGGGTKLEIK
200 fold | mAb H17 (antibody, V domains shown, It is a chimeric, de-immunized form of 3E7 with human gamma1 and kappa constant regions, expressed in NS0 cells; also called H117; deimmunized chimeric 3E7) VH: EVQLQESGPSLVKPSQTLSLTCTVSGDSITSDYWNWIRQAPGKGLESMGYITYSGTTYYNPSLKSRVTISRDTSKNQYYMELSSLRSEDTATYYCARGVDYEPSYYFDYWGQGTLVTVSS VL: DIQMTQSPSSLSASVGDRVTITCSASQGISNYLNWYQQKPGKAPKLLIYYTSSLHSGVPSRFSGSGSGTDYSLTISSLQPEDIATYYCQQYSNLPWTFGQGTKVEIK

— patent US20090004183A1 (published 2009)
